Data published in publication doi:10.1101/438903.

Molecular target: DY-547P1 labelled NDC80-C Bonsai (ΔHec1 1-80)
Test: MST

Kd: 300 nM
B1: MPS1^WT (1xNTE, residues 1-808), recombinant from insect cells (enzyme)
chain: MESEDLSGRELTIDSIMNKVRDIKNKFKNEDLTDELSLNKISADTTDNSGTVNQIMMMANNPEDWLSLLLKLEKNSVPLSDALLNKLIGRYSQAIEALPPDKYGQNESFARIQVRFAELKAIQEPDDARDYFQMARANCKKFAFVHISFAQFELSQGNVKKSKQLLQKAVERGAVPLEMLEIALRNLNLQKKQLLSEEEKKNLSASTVLTAQESFSGSLGHLQNRNNSCDSRGQTTKARFLYGENMPPQDAEIGYRNSLRQTNKTKQSCPFGRVPVNLLNSPDCDVKTDDSVVPCFMKRQTSRSECRDLVVPGSKPSGNDSCELRNLKSVQNSHFKEPLVSDEKSSELIITDSITLKNKTESSLLAKLEETKEYQEPEVPESNQKQWQSKRKSECINQNPAASSNHWQIPELARKVNTEQKHTTFEQPVFSVSKQSPPISTSKWFDPKSICKTPSSNTLDDYMSCFRTPVVKNDFPPACQLSTPYGQPACFQQQQHQILATPLQNLQVLASSSANECISVKGRIYSILKQIGSGGSSKVFQVLNEKKQIYAIKYVNLEEADNQTLDSYRNEIAYLNKLQQHSDKIIRLYDYEITDQYIYMVMECGNIDLNSWLKKKKSIDPWERKSYWKNMLEAVHTIHQHGIVHSDLKPANFLIVDGMLKLIDFGIANQMQPDTTSVVKDSQVGTVNYMPPEAIKDMSSSRENGKSKSKISPKSDVWSLGCILYYMTYGKTPFQQIINQISKLHAIIDPNHEIEFPDIPEKDLQDVLKCCLKRDPKQRISIPELLAHPYVQIQTHPVNQMAKGTTEE
